Experiment [1] addresses T1, recombinant his-tagged human Cad-11 (R&D Systems) (human, UniProt P55287 54-617).
T1 construct: also called rhCad-11; recombinant human Cad-11; not shown: his tag
T1 sequence: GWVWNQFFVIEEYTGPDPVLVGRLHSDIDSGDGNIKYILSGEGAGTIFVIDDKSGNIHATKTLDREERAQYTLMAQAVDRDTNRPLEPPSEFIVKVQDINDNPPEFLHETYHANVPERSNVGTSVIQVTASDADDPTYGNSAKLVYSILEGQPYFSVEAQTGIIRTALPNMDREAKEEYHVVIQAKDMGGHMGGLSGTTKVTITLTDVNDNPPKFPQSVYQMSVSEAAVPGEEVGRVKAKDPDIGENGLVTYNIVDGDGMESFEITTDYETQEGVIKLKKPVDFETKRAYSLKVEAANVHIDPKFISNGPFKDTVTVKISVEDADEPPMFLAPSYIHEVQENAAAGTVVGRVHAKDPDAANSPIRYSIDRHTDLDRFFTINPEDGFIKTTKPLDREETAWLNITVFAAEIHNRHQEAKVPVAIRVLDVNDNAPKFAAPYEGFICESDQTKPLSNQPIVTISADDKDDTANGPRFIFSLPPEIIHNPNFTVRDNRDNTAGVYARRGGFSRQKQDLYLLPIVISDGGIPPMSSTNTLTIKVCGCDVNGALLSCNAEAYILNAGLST
The experiment can be described thus: SPR, rhCad-11 immobilized, SDP051 as analyte, 2 state reaction model (ka1). As for the experimental part: To determine the affinity of SDP051 for recombinant his-tagged human Cad-11, rhCad-11 (R&D Systems) was immobilized to the chip at a single concentration, high resolution kinetics were determined for SDP051, and a 2-state reaction binding model was successfully fitted to the kinetic data.
Kinetic data were obtained at a flow rate of 40 μL/min to minimize any potential mass transfer effects. An analyte concentration series ranging from 12.5 nM to 0.195 nM was prepared by serial dilution. Two repeats of the blank (no mAb) and the 3.125 nM (first and last cycle) concentration of the analyte were programmed into the kinetic runs in order to check the stability of both the surface and analyte over the kinetic cycles. The SDP051 was injected over the Fcs for 360 seconds, long enough to observe the curvature in association phase.
As rhCad-11 is homodimeric and therefore contained two identical binding epitopes, it is likely that individual mAb molecules become bound sequentially through a first binding site and then both binding sites.
Background: Surface plasmon resonance follows binding to a sensor surface in real time, without labels.

The target of experiment [2] is T2, BSA coupled 37-mer Cad-11 peptide encompassing the Cad-11 immunogen (UniProt P55287 54-90, limits assumed, linked to BSA).
T2 construct: domain: 37-mer peptide encompassing the Cad-11 immunogen; also called Cad-11 antigen; Cad-11 peptide immunogen
T2 peptide (looked up): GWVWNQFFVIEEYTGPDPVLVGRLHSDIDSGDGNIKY
The experiment can be described thus: ELISA, BSA-coupled 37-mer cadherin peptide coated at 500 ng/ml, antibody titrated, A450. As for the experimental part: Reactibind plates (ThermoScientific) were coated with 500 ng/ml of the BSA coupled cadherin 37-mer peptide (NE peptide) corresponding to Cadherins-7, -8, -9, -11, -18, -20, and -24 in 0.05% Tween (EMD, product code 9480) in PBS (pH 7.2) (Gibco(Invitrogen), #20012) at 100 μl volume/well for overnight at 4° C. The peptide containing solution was removed from the well and the plate blocked with a 2% bovine serum albumin (BSA) in PBS, 200 μl volume/well, for 2 h at 22° C. The plate was then washed twice with 200 μl/well of PBS-Tween 0.05% at 22° C. and blotted dry. A dilution series from 5 μg/ml to 8 ng/ml in a volume of 100 μl/well of each the humanized anti-Cad-11 antibodies were incubated in the peptide coated wells and incubated at 22° C. for 1 hr. Antibody solution was removed from the wells and the plate washed twice with 200 μl/well of 0.05% Tween-PBS at 22° C. and blotted dry. The goat-anti mouse IgG (Pierce # 31432) was added to each well to plate at a 1:1000 dilution, 100 μl/well and incubate at 22° C. for 30 min. The secondary antibody solution was removed and the plate washed twice with 200 μl/well of 0.05% Tween-PBS at 22° C. and blotted dry. The reaction was developed by adding 100 μl/well tetramethylbenzidine (TMB) reagent IgG (Pierce # 34022, 1 step Turbo TMB-ELISA) to plate and developed at 22° C. for 5 min.
For orientation: An ELISA detects its analyte on a solid surface through an enzyme-linked reagent.

The target in experiment [3] is T3, Peptide 1 (amino acids G1-P18 of the Cad-11 EC1 domain) (human).
T3 construct: Range counted on the EC1 domain; also called PEP1
T3 peptide: GWVWNQFFVIEEYTGPDP
The experiment can be described thus: ELISA on coated peptide or protein, antibody at one dilution, goat anti-mouse IgG, TMB, OD450. The method, then: (§1) To determine the epitope within the Cad-11 EC1 domain that the Peptide 4 Cad-11 EC1 antibodies H1M1 and H14 bind, four different peptides spanning the first 37 amino acids of the EC1 region (see FIG. 22) were immobilized in an ELISA format and the ability of the H1M1 and H14 antibodies to bind each of the four peptides was determined. 96-well Reactibind plates were coated overnight at 4° C. with 0.3 ng/well of Peptide 1 (amino acids G1-P18 of the Cad-11 EC1 domain), 0.3 ng/well of Peptide 2 (amino acids G15-N34 of the Cad-11 EC1 domain), 0.3 ng/well of Peptide 3 (amino acids V19-Y37 of the Cad-11 EC1 domain), 0.3 ng/well of the immunogen Peptide 4 (amino acids G1-G33 of the Cad-11 EC1 domain), 20 ng of a fusion protein including the entire EC1 domain (EFL), or 20 ng of control human Ig (Fc-block). The wells were washed twice with PBS-Tween (0.05%), blocked with casein in dH₂0 for 3 hrs at 22° C. and then washed again twice with PBS-Tween (0.05%). Various dilutions of the different Peptide 4 Cad-11 EC1 domain antibodies were transferred to the peptide- or protein-coated wells, incubated for 45 min at 22° C. and then washed twice with PBS-Tween (0.05%). 100 μl of a 1/1000 dilution of goat anti-mouse IgG secondary antibody (Jackson ImmunoResearch, West Grove, Pa.) were added to each well, incubated for 30 min at 22° C. and then washed twice with PBS-Tween (0.05%). 100 μl/well of room temperature TMB reagent was added to each well and color was allowed to develop for 5 min at 22° C.

Experiment [4] has as its target T4, Peptide 2 (amino acids G15-N34 of the Cad-11 EC1 domain) (human).
T4 construct: Range counted on the EC1 domain; also called PEP2
T4 peptide: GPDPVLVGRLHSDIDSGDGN
The description is as above. The method, then:
as §1

Experiment [5] addresses T5, Peptide 3 (amino acids V19-Y37 of the human Cad-11 EC1 domain) (human).
T5 construct: also called PEP3; peptide V19-Y37
T5 peptide: VLVGRLHSDIDSGDGNIKY
The description is as above. As for the experimental part:
as §1

B1: humanized anti-Cad-11 EC1 antibody SDP051 (Vκ1/VH5) (antibody, IgG4, V domains shown)
VH: EVQLVQSGAEVKKPGASVKVSCKASGYSFTGYFMNWVRQAPGQGLEWIGRINPYTGDTFYNQKFKGRVTITVDKSTSTAYMELSSLRSEDTAVYYCGRLGSRYWYFDVWGQGTTVTVSS
VL: DVLMTQTPLSSPVTLGQPASISCRSSQSIIHSNGNTYLEWYLQKPGQSPQLLIYKVSNRFSGVPDRFTGSGSGTDFTLKISRVEAEDVGVYYCFQGSHVPWTFGQGTKLEIK
notes: humanized IgG4 (S241P), kappa
Consider B1, for which the kon in experiment [1] was found to be 613000 M⁻¹ s⁻¹. For the same molecule, the half-maximal effective concentration (EC50 (read off the curve)) in experiment [2] is roughly 0.04 µg/mL.

B2: murine H1M1 monoclonal anti-Cad-11 EC1 antibody (hybridoma H1M1, ATCC PTA-9699) (antibody, V domains shown)
VH: EVQLQQSGPELVKPGASVKISCKASGYSFTGYFMNWVKQSHGKSLEWIGRINPYTGDTFYNQKFKGKATLTVDKSSSTAHMELLSLSSEDSAVYYCGRLGSRYWYFDVWGAGTTVTVSS
VL: DVLMTQTPLSLPVSLGDQASISCRSSQSIIHSNGNTYLEWYLQKPGQSPKLLIYKVSNRFSGVPDRFTGSGSGTDFTLKISRVEAEDLGVYYCFQGSHVPWTFGGGTKLEIK
modifications: Biotinylated when used as the labelled competitor in Example 14; the letters are unchanged.
notes: murine antibody raised against Peptide 4; also called SYN0012; SYN0012/H1M1
Consider B2, for which the values for the binding result in experiment [3], in experiment [4] and in experiment [5] were “no binding”, “binds” and “no binding”, respectively.

Broadly, the kon is the rate constant with which the complex forms. For orientation: EC50 (read off the curve) means the concentration needed to bring the measured effect to its halfway point.

The values are drawn from patent publication US20110045003A1 (SYNOVEX, published 2011).
